# Patent US20170369542A1 (Pieris, published 2017)
# T1: synthetic non-modified human Hepcidin-25 (human, not fully specified)
# T1 peptide: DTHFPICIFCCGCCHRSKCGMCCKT
# T2: cynomolgus Hepcidin-25 (cynomolgus, UniProt A7XEI3 60-84, not fully specified)
# T2 construct: mature
# T2 peptide: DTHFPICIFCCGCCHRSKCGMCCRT
# T3: C-terminal biotinylated human Hepcidin-25 (human, not fully specified; biotinylated via a Lysine residue coupled to the C-terminus via a Mini-PEG linker)
# T3 construct: Bought from Bachem AG; Captured on plates via Neutravidin; also called C-terminal biotinylated hepcidin; C-terminal biotinylated hHepcidin
# T3 peptide: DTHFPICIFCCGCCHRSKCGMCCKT
# B1: lipocalin mutein of SEQ ID NO: 13, linked to PEG40 (designed binder)
# chain: QDSTSDLIPAPPLSKVPLQQNFQDNQFHGKWYVVGLAGNEVLREDKDPMKMWATIYELKEDKSYNVTIVMPLAEKCEYLFQTFVPGCQPGEFTLGGIKSGPGRTSGLVRVVSTNYNQHAMVFFKVVWQNREVFWVTLYGRTKELTSELKENFIRFSKSLGLPENHIVFPVPIDQCIDG
# modifications: branched 40k PEG-maleimide on the free Cys at position 87
# notes: hNGAL mutein with Ser 87 back-mutated to Cys and PEGylated there
# Assays:
# [1] = target: T1, synthetic non-modified human Hepcidin-25; assay: cell-based or functional assay
# cynomolgus Hepcidin-25 = target: T2, cynomolgus Hepcidin-25; assay: SPR, Biacore T100, mutein amine-coupled to CM5 chip, hepcidin as analyte, 25 C
# Method: (§1) Lipocalin muteins were immobilized to a CM5 sensor chip using standard amine chemistry: The surface of the chip was activated using EDC and NHS. Subsequently, 20 μg/mL lipocalin mutein solutions in 10 mM sodium acetate pH 4.5 (60 μg/mL in 10 mM sodium acetate pH 4.0 for pegylated lipocalin mutein) were applied at a flow rate of 5 μL/min until a surface density of 500-700 resonance units (RU) for non-modified lipocalin muteins and of approximately 1600 RU for pegylated lipocalin with the sequence of SEQ ID NO: 13 was achieved. Residual activated groups were saturated with ethanolamine. The reference channels were treated with EDC/NHS following ethanolamine (blank immobilization). All reagents and materials were purchased from GE Healthcare.
# (§2) Serial dilutions of human and cynomolgus Hepcidin-25 in running buffer (HBS-EP+, GE Healthcare, BR-1006-68) were applied to the prepared surface. The following parameters were used for the binding assay: contact time 60 s, dissociation time 180-360 s, flow rate 30 μL/min. All measurements were performed on a Biacore T100 instrument (GE Healthcare) at 25° C.
# (§3) Data were evaluated with Biacore T100 Evaluation software (V 2.0.1). Double referencing was used. The 1:1 Binding model (Langmuir) was used to fit the raw data.
# [2] = target: T3, C-terminal biotinylated human …; assay: direct ELISA, biotinylated hepcidin captured via Neutravidin, mutein titrated
# Method: A “direct” ELISA was performed to verify the binding affinity and specificity of the selected Lcn2 muteins. Therefore, a constant concentration of 1 μg/ml C-terminal biotinylated hepcidin (Bachem AG, CH) was captured on the surface of a polystyrol plate (Greiner, GE) via Neutravidin (Thermo Scientific, 5 μg/ml). Two step dilution series of purified Lcn2 muteins were incubated with the captured hepcidin for 1 h at room temperature and detected either via the Strep-tag II using a rabbit anti-strep-tag II polyconal antibody (GenScript, USA) or by using a scaffold-specific polyclonal rabbit antibody. In both cases an anti rabbit IgG-HRP conjugate (Abcam, UK) was employed as secondary detection antibody.
# The absorption ΔA at […] was measured in an ELISA reader (Tecan, GE) and the data were fitted with Graphpad Prism software (Statcom, USA).
# [3] = target: T1, synthetic non-modified human Hepcidin-25; assay: SPR (Biacore T100), mutein immobilized on CM5 chip, hepcidin-25 in solution, 1:1 model
# Method: as §1, §2, §3
# [4] = target: T1, synthetic non-modified human Hepcidin-25; assay: SPR, Biacore T100, pegylated mutein amine-coupled to CM5 chip, hepcidin as analyte, 1:1 model, 25 C
# Method: as §1, §2, §3
# [5] = target: T1, synthetic non-modified human Hepcidin-25; assay: competition ELISA: non-biotinylated human hepcidin-25 titrated against a constant concentration of mutein; free mutein detected on plate-captured biotinylated human hepcidin
# Method: The binding affinity of the Lcn2 muteins to non-modified hepcidin-25 in solution was evaluated in a competition ELISA approach. Therefore, a constant concentration of 1 μg/ml C-terminal biotinylated human hepcidin (Bachem AG, CH) was captured on the surface of a polystyrol plate (Greiner, GE) via Neutravidin (Thermo Scientific, 5 μg/ml, GE). In parallel a two step dilution series of non-biotinylated human hepcidin starting from 1 μM was incubated with a constant concentration of hepcidin-specific mutein for 1 h at room temperature in a non-protein binding 96 well polypropylene plate (Nunc, GE). The constant concentration of lipocalin muteins corresponds to the EC₅₀ of the respective muteins as determined in a direct ELISA as described above in this example. In the following the mixture of non-modified human hepcidin and lipocalin mutein was transferred onto the hepcidin-captured Neutravidin plate. The C-terminal biotinylated hepcidin was allowed to compete with the non-modified hepcidin for Anticalin binding for 20 min. at room temperature. During these 20 min, free lipcocalin mutein was bound to the captured hepcidin and detected via a rabbit anti-strep-tag II polyconal antibody (GenScript, USA). A goat anti-rabbit IgG-HRP conjugate (Abcam, UK) was employed as secondary detection antibody. Parallel to the competition assay, anticalin binding was determined on the same plate in a “direct” ELISA, in order to obtain a standard curve linking the RFU values to anticalin concentration. This curve was then used to standardize competition data to the level of anticalins bounds to the plate and fitted with Graphpad software. IC₅₀ values correspond to the half-maximum amount of lipocalin mutein bound to the plate.
binder,measurement,setting,value
B1,"IC50 of neutralization of hepcidin-induced (40 nM) internalization and degradation of FPN-GFP in T-REx-293 cells, GFP fluorescence by flow cytometry",[1],34 nM
same,fold higher affinity compared to the human target,cynomolgus Hepcidin-25,~2 fold
same,Kd,[2],3.49 nM
same,Kd,[3],0.041 nM
same,koff,[3],0.000123 s⁻¹
same,kon,[3],2.98e+06 M⁻¹ s⁻¹
same,Kd,[4],0.04 nM
same,IC50,[5],0.24 nM
